According to paper PMC9482650, “Quantitative fragmentomics allow affinity mapping of interactomes” (Nature Communications, 2022):

T1: LRRC7, Q96NW7
T1 sequence (Q96NW7 1440-1537, limits assumed, looked up): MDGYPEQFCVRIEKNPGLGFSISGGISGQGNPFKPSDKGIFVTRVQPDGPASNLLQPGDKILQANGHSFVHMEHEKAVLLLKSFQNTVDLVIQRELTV

T2: SNTG2, Q9NY99
T2 sequence (Q9NY99 68-166, limits assumed, looked up): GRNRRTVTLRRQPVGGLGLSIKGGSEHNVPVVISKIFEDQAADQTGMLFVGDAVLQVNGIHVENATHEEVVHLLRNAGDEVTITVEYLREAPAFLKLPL

T3: TIAM2, Q8IVF5
T3 sequence (Q8IVF5 885-986, limits assumed, looked up): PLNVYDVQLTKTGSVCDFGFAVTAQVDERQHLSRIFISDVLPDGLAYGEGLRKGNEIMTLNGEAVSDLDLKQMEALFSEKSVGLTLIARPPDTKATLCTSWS

T4: NHERF3_1, Q5T2W1
T4 sequence (Q5T2W1 4-100, limits assumed, looked up): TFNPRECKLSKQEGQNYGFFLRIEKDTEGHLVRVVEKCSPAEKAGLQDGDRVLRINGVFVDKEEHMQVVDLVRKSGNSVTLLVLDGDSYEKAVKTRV

T5: SNTG1, Q9NSN8
T5 sequence (Q9NSN8 52-150, limits assumed, looked up): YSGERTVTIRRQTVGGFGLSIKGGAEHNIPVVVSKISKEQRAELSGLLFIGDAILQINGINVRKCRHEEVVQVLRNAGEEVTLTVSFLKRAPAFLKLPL

T6: MPP6, Q9NZW5
T6 sequence (Q9NZW5 125-219, limits assumed, looked up): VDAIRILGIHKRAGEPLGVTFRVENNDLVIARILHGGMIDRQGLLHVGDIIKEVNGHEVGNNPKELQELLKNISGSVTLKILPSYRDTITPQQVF

T7: PARD3B_1, Q8TEW8
T7 sequence (Q8TEW8 196-299, limits assumed, looked up): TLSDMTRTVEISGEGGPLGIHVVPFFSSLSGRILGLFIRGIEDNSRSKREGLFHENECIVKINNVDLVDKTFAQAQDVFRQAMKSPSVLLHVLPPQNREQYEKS

T8: NHERF3_3, Q5T2W1
T8 sequence (Q5T2W1 238-333, limits assumed, looked up): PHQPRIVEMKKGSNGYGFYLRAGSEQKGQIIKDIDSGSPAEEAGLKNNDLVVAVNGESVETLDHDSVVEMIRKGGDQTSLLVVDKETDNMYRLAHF

B1: GRIN2A, Q12879 (peptide)
chain: KKMPSIESDV
B2: IQSEC2, Q5JU85 (peptide)
chain: AKPSRISTVV
B3: PLEKHA2, Q9HB19 (peptide)
chain: DDENIRTSDV
B4: ERBB2, P04626 (peptide)
chain: PEYLGLDVPV
B5: TBC1D10A, Q9BXI6 (peptide)
chain: TSQESEDTYL

target: PTPN3, P26045; experiment: holdup assay; parameters: key: below the threshold = too weak to quantify, mostly under pKd 3.1 to 4; conditions: plain residues with an end cap or a label only (N-terminal biotin on a linker: ado-ado)
Sequence (P26045 505-587): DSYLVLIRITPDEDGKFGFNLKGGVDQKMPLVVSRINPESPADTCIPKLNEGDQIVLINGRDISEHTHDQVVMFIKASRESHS

pKd	Binder
4.44	B1
4.21	B2
4.6	B3
below the threshold	B4
4.88	B5

target: PICK1, Q9NRD5; experiment: holdup assay; parameters: key: below the threshold = too weak to quantify, mostly under pKd 3.1 to 4; conditions: plain residues with an end cap or a label only (N-terminal biotin on a linker: ado-ado)
Sequence (Q9NRD5 17-115): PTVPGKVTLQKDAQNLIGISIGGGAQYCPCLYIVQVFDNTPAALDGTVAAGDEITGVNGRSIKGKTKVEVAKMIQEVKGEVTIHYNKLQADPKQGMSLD

pKd	Binder
below the threshold	B1
4.14	B2
below the threshold	B3
4.25	B4
4.11	B5

target: LAP2, Q96RT1; experiment: holdup assay; parameters: key: below the threshold = too weak to quantify, mostly under pKd 3.1 to 4; conditions: plain residues with an end cap or a label only (N-terminal biotin on a linker: ado-ado)
Sequence (Q96RT1 other isoform, or with tags, fused parts or gaps): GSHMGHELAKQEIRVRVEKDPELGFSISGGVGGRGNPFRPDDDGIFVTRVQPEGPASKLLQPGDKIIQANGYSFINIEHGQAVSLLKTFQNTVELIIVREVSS

pKd	Binder
4.6	B1
below the threshold	B2
4.18	B3
4.26	B4
3.54	B5

target: T1, LRRC7, Q96NW7; experiment: holdup assay; parameters: key: below the threshold = too weak to quantify, mostly under pKd 3.1 to 4; conditions: plain residues with an end cap or a label only (N-terminal biotin on a linker: ado-ado)

pKd	Binder
3.91	B1
below the threshold	B2
3.72	B3
below the threshold	B4
3.85	B5

target: DLG1_2, Q12959; experiment: holdup assay; parameters: key: below the threshold = too weak to quantify, mostly under pKd 3.1 to 4; conditions: plain residues with an end cap or a label only (N-terminal biotin on a linker: ado-ado)
Sequence (Q12959 314-412): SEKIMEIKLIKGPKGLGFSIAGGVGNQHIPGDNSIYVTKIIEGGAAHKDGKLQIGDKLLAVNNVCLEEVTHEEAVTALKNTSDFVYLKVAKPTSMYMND

pKd	Binder
5.44	B1
5.52	B2
4.46	B3
below the threshold	B4
below the threshold	B5

target: T2, SNTG2, Q9NY99; experiment: holdup assay; parameters: key: below the threshold = too weak to quantify, mostly under pKd 3.1 to 4; conditions: plain residues with an end cap or a label only (N-terminal biotin on a linker: ado-ado)

pKd	Binder
4.41	B1
below the threshold	B2
4.08	B3
below the threshold	B4
below the threshold	B5

target: TJP1_3, Q07157; experiment: holdup assay; parameters: key: below the threshold = too weak to quantify, mostly under pKd 3.1 to 4; conditions: plain residues with an end cap or a label only (N-terminal biotin on a linker: ado-ado)
Sequence (Q07157 416-512): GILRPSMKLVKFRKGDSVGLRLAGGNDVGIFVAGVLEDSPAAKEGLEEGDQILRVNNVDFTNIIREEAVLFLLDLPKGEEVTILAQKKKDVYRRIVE

pKd	Binder
below the threshold	B1
below the threshold	B2
below the threshold	B3
below the threshold	B4
below the threshold	B5

target: DLG1_3, Q12959; experiment: holdup assay; parameters: key: below the threshold = too weak to quantify, mostly under pKd 3.1 to 4; conditions: plain residues with an end cap or a label only (N-terminal biotin on a linker: ado-ado)
Sequence (Q12959 457-571): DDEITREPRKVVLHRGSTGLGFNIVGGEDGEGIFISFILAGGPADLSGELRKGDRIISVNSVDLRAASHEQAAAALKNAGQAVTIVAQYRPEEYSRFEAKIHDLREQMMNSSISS

pKd	Binder
below the threshold	B1
below the threshold	B2
below the threshold	B3
below the threshold	B4
below the threshold	B5

target: GRIP2_6, Q9C0E4; experiment: holdup assay; parameters: key: below the threshold = too weak to quantify, mostly under pKd 3.1 to 4; conditions: plain residues with an end cap or a label only (N-terminal biotin on a linker: ado-ado)
Sequence (Q9C0E4 648-740): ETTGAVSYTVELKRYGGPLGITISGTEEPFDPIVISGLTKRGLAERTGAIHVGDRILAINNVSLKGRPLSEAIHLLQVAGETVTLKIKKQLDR

pKd	Binder
below the threshold	B1
below the threshold	B2
below the threshold	B3
below the threshold	B4
below the threshold	B5

target: Inadl_3, Q8NI35; experiment: holdup assay; parameters: key: below the threshold = too weak to quantify, mostly under pKd 3.1 to 4; conditions: plain residues with an end cap or a label only (N-terminal biotin on a linker: ado-ado)
Sequence (Q8NI35 359-469): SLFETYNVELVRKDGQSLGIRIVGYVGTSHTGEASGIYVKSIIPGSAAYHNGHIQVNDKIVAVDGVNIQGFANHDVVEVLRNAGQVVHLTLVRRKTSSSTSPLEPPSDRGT

pKd	Binder
below the threshold	B1
3.73	B2
below the threshold	B3
3.48	B4
below the threshold	B5

target: T3, TIAM2, Q8IVF5; experiment: holdup assay; parameters: key: below the threshold = too weak to quantify, mostly under pKd 3.1 to 4; conditions: plain residues with an end cap or a label only (N-terminal biotin on a linker: ado-ado)

pKd	Binder
3.96	B1
3.91	B2
below the threshold	B3
below the threshold	B4
below the threshold	B5

target: LIMK2, P53671; experiment: holdup assay; parameters: key: below the threshold = too weak to quantify, mostly under pKd 3.1 to 4; conditions: plain residues with an end cap or a label only (N-terminal biotin on a linker: ado-ado)
Sequence (P53671 143-248): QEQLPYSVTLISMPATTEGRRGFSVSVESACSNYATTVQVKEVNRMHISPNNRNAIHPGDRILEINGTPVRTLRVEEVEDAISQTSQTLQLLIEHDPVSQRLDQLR

pKd	Binder
below the threshold	B1
below the threshold	B2
below the threshold	B3
below the threshold	B4
below the threshold	B5

target: DLG4_3, P78352; experiment: holdup assay; parameters: key: below the threshold = too weak to quantify, mostly under pKd 3.1 to 4; conditions: plain residues with an end cap or a label only (N-terminal biotin on a linker: ado-ado)
Sequence (P78352 306-403): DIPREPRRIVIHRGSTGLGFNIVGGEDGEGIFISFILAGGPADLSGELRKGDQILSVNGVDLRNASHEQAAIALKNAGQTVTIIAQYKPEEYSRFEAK

pKd	Binder
below the threshold	B1
4.18	B2
below the threshold	B3
below the threshold	B4
below the threshold	B5

target: NHERF4_4, Q86UT5; experiment: holdup assay; parameters: key: below the threshold = too weak to quantify, mostly under pKd 3.1 to 4; conditions: plain residues with an end cap or a label only (N-terminal biotin on a linker: ado-ado)
Sequence (Q86UT5 464-550): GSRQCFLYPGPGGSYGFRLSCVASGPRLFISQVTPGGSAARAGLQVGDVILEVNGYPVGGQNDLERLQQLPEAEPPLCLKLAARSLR

pKd	Binder
below the threshold	B1
below the threshold	B2
below the threshold	B3
below the threshold	B4
below the threshold	B5

target: LDB3, O75112; experiment: holdup assay; parameters: key: below the threshold = too weak to quantify, mostly under pKd 3.1 to 4; conditions: plain residues with an end cap or a label only (N-terminal biotin on a linker: ado-ado)
Sequence (O75112 1-94): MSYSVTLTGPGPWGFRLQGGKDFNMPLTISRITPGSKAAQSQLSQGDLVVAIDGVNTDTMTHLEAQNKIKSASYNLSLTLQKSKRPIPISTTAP

pKd	Binder
below the threshold	B1
below the threshold	B2
below the threshold	B3
below the threshold	B4
below the threshold	B5

target: T4, NHERF3_1, Q5T2W1; experiment: holdup assay; parameters: key: below the threshold = too weak to quantify, mostly under pKd 3.1 to 4; conditions: plain residues with an end cap or a label only (N-terminal biotin on a linker: ado-ado)

pKd	Binder
below the threshold	B1
below the threshold	B2
below the threshold	B3
below the threshold	B4
5.69	B5

target: IL16_1, Q14005; experiment: holdup assay; parameters: key: below the threshold = too weak to quantify, mostly under pKd 3.1 to 4; conditions: plain residues with an end cap or a label only (N-terminal biotin on a linker: ado-ado)
Sequence (Q14005 210-306): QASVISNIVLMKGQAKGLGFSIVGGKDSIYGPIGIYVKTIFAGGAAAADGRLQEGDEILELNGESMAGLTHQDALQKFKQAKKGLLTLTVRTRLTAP

pKd	Binder
4.05	B1
below the threshold	B2
3.83	B3
3.65	B4
below the threshold	B5

target: DLG4_2, P78352; experiment: holdup assay; parameters: key: below the threshold = too weak to quantify, mostly under pKd 3.1 to 4; conditions: plain residues with an end cap or a label only (N-terminal biotin on a linker: ado-ado)
Sequence (P78352 155-259): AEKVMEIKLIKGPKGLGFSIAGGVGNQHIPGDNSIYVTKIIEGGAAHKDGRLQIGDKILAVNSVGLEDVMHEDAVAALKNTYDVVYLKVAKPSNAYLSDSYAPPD

pKd	Binder
5.29	B1
5.31	B2
4.38	B3
3.48	B4
below the threshold	B5

target: T5, SNTG1, Q9NSN8; experiment: holdup assay; parameters: key: below the threshold = too weak to quantify, mostly under pKd 3.1 to 4; conditions: plain residues with an end cap or a label only (N-terminal biotin on a linker: ado-ado)

pKd	Binder
4.89	B1
below the threshold	B2
4.88	B3
3.55	B4
below the threshold	B5

target: PARD3_3, Q8TEW0; experiment: holdup assay; parameters: key: below the threshold = too weak to quantify, mostly under pKd 3.1 to 4; conditions: plain residues with an end cap or a label only (N-terminal biotin on a linker: ado-ado)
Sequence (Q8TEW0 582-685): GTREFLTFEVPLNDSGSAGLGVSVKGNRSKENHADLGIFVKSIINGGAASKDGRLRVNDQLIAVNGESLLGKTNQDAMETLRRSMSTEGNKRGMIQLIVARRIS

pKd	Binder
below the threshold	B1
below the threshold	B2
below the threshold	B3
3.52	B4
4.63	B5

target: ARHGEF12, Q9NZN5-2; experiment: holdup assay; parameters: key: below the threshold = too weak to quantify, mostly under pKd 3.1 to 4; conditions: plain residues with an end cap or a label only (N-terminal biotin on a linker: ado-ado)
Sequence (Q9NZN5 other isoform, or with tags, fused parts or gaps): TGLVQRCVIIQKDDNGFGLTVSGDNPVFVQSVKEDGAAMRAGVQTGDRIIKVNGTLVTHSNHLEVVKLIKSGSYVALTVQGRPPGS

pKd	Binder
3.69	B1
4.75	B2
4.25	B3
below the threshold	B4
4.02	B5

target: T6, MPP6, Q9NZW5; experiment: holdup assay; parameters: key: below the threshold = too weak to quantify, mostly under pKd 3.1 to 4; conditions: plain residues with an end cap or a label only (N-terminal biotin on a linker: ado-ado)

pKd	Binder
below the threshold	B1
below the threshold	B2
below the threshold	B3
below the threshold	B4
below the threshold	B5

target: MAST2, Q6P0Q8; experiment: holdup assay; parameters: key: below the threshold = too weak to quantify, mostly under pKd 3.1 to 4; conditions: plain residues with an end cap or a label only (N-terminal biotin on a linker: ado-ado)
Sequence (Q6P0Q8 1099-1202): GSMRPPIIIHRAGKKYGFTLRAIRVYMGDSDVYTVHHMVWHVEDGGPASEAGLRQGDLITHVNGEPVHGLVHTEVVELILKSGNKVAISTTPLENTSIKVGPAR

pKd	Binder
4.95	B1
5.11	B2
4.9	B3
4.21	B4
5.41	B5

target: SCRIB_1, Q14160; experiment: holdup assay; parameters: key: below the threshold = too weak to quantify, mostly under pKd 3.1 to 4; conditions: plain residues with an end cap or a label only (N-terminal biotin on a linker: ado-ado)
Sequence (Q14160 718-814): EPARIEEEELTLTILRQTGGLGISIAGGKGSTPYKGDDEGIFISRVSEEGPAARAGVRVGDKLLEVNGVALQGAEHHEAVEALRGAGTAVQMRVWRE

pKd	Binder
4.34	B1
3.58	B2
3.75	B3
below the threshold	B4
3.99	B5

target: SCRIB_3, Q14160; experiment: holdup assay; parameters: key: below the threshold = too weak to quantify, mostly under pKd 3.1 to 4; conditions: plain residues with an end cap or a label only (N-terminal biotin on a linker: ado-ado)
Sequence (Q14160 999-1103): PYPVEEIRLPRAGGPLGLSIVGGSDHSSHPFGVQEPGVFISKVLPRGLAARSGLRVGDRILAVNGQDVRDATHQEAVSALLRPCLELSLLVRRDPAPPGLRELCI

pKd	Binder
4.85	B1
3.74	B2
3.99	B3
below the threshold	B4
4.16	B5

target: Inadl_1, Q8NI35; experiment: holdup assay; parameters: key: below the threshold = too weak to quantify, mostly under pKd 3.1 to 4; conditions: plain residues with an end cap or a label only (N-terminal biotin on a linker: ado-ado)
Sequence (Q8NI35 113-229): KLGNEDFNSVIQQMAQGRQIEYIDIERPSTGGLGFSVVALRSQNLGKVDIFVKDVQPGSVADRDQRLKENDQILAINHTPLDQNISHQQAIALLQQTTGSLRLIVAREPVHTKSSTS

pKd	Binder
below the threshold	B1
below the threshold	B2
below the threshold	B3
below the threshold	B4
below the threshold	B5

target: GRASP, Q7Z6J2; experiment: holdup assay; parameters: key: below the threshold = too weak to quantify, mostly under pKd 3.1 to 4; conditions: plain residues with an end cap or a label only (N-terminal biotin on a linker: ado-ado)
Sequence (Q7Z6J2 96-193): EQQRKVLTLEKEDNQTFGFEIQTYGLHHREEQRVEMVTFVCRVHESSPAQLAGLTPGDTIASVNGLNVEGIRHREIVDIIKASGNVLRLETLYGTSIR

pKd	Binder
below the threshold	B1
4.41	B2
3.82	B3
below the threshold	B4
below the threshold	B5

target: T7, PARD3B_1, Q8TEW8; experiment: holdup assay; parameters: key: below the threshold = too weak to quantify, mostly under pKd 3.1 to 4; conditions: plain residues with an end cap or a label only (N-terminal biotin on a linker: ado-ado)

pKd	Binder
below the threshold	B1
below the threshold	B2
below the threshold	B3
below the threshold	B4
4.58	B5

target: T8, NHERF3_3, Q5T2W1; experiment: holdup assay; parameters: key: below the threshold = too weak to quantify, mostly under pKd 3.1 to 4; conditions: plain residues with an end cap or a label only (N-terminal biotin on a linker: ado-ado)

pKd	Binder
below the threshold	B1
below the threshold	B2
below the threshold	B3
below the threshold	B4
3.59	B5

target: IL16_4, Q14005; experiment: holdup assay; parameters: key: below the threshold = too weak to quantify, mostly under pKd 3.1 to 4; conditions: plain residues with an end cap or a label only (N-terminal biotin on a linker: ado-ado)
Sequence (Q14005 1229-1329): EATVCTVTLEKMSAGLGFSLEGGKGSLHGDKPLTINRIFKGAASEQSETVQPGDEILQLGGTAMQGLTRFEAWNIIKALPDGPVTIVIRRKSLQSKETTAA

pKd	Binder
below the threshold	B1
3.51	B2
below the threshold	B3
3.72	B4
below the threshold	B5
